Experimental data reported in the nanobody polyreactivity screen of Harvey et al. (2022).

Assay: yeast display, Sf9 membrane polyspecificity reagent, FACS + sequencing; frameworks hold sequencing errors
Summary of the method: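 Genes from sorted yeast were amplified by colony PCR, read by MiSeq 2 × 250 sequencing and filtered on CDR length. These cells carried a synthetic nanobody library in Saccharomyces cerevisiae BJ5465 and were sorted by FACS into low and high (top ~1%) gates on anti-HA and streptavidin fluorescence. Polyreactivity is labelled according to the gate of origin.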

| Sequence | polyreactivity (PSR sort gate) |
| --- | --- |
| QVQLVESGGGLVQAGGSLRLSCAASGSTFSKNAMGWYRQAPGKERELVAAINWSTGSTHYADSVKGRFTISRDNAKNTVYLQMNRLKPEDTAVYYCAAEGPKQYDYWGQGTQVTVSS | low polyreactivity |
| QVQLVESGGGLVQAGGSLRLSCAASGSTFSKYAMGCYRQAPGKERELVAAISSGGRTNYADSVKGRFTISRDNAKNTVYLQMNSLKPEDTAVYFCAALLGYWAYYYWGQGSQVTVSS | low polyreactivity |
| QVQLVESGGGLVQAGGSLRLSCAASGSTFSKYAMGWYRQAPGKERELVAGISRRVGSTYYADSVKGRFTISRDNAKNTVYFQMNSLKPEDTAVYYCNKVRGYPWQVVGYDYWGQGTQVTVSS | high polyreactivity |
| QVQLVESGGGLVQAGGSLRLSCAASGSTFSKYAMGWYRQAPVKERELVAGIRGRGGSAYYADSVKGRFTISRDNAKNTVYLQMNSLKPEDTAVYYCAKEARLWGQGTQVTVSS | low polyreactivity |
| QVQLVESGGGLVQAGGSLRLSCAASGSTFSKYVMGWYRQATGKERELVAAISGGDRTYYADSVKGRFTISRDNAKNTVYLQMNSLKPEDTAVYYCAAEVLKTRWSYDYWGQGTQVTVSS | high polyreactivity |
| QVQLVESGGGLVQAGGSLRLSCAASGSTFSLYAMGWYRQAPGKERELVASSRWSGGRTYDADSVKGRFTISRDNAKNTVYLQMNSLKPEDTAVYYCAAAWRYGYGYLGQGTQVTVSS | high polyreactivity |
| QVQLVESGGGLVQAGGSLRLSCAASGSTFSNNAMGWYRQAPGKERELVASTNYADSVKGRFTISRDNAKNTVYLQMNSLKPEDTAVYYCAAGAYPSWGHDYWGQGTQVTVSS | low polyreactivity |
| QVQLVESGGGLVQAGGSLRLSCAASGSTFSPYALGWYRQATGKERELVAAISASGVGTYYADSVKGRFTISRDYAKNPVYLQMNRLIPEDTAVYYCCRDYGWDISKGRYGYWGQGTQVTVSS | low polyreactivity |
| QVQLVESGGGLVQAGGSLRLSCAASGSTFSPYAMGCYRQAPGKERELVAAINYSSGSTYYADSVKGRFTISRDNAMNTVYLQLNSLKPEDTAVYYCATGWYAGFTYDYWGQGTQVTVSS | low polyreactivity |
| QVQLVESGGGLVQAGGSLRLSCAASGSTFSPYAMGWYRQAPGKERELVAAIRRGGSTNYADSVKGRFTISRDNAKNTVYLQMNSLKPEDTAVYYCAATKRRFVKFDYWGQGTQVTVSS | low polyreactivity |
| QVQLVESGGGLVQAGGSLRLSCAASGSTFSPYAMGWYRQAPGKERELVAGITSSGGDTYYADSVKGRFTISRDNAKNTVYLQMNSLKPEDTAVYYCAAGLQGYPRKFNYWGQGTQVTVSS | low polyreactivity |
| QVQLVESGGGLVQAGGSLRLSCAASGSTFSQNAMGWYRQAPGKERELVAVISSSGGRTNYADSVKGRFTISRDNAKNTVYLQMNSLKPEDSAVYYCAKRLRVLYYYWGQGTQVTVSS | high polyreactivity |
| QVQLVESGGGLVQAGGSLRLSCAASGSTFSQNAMGWYRQAPGKERELVAVISSSGGRTNYADSVKGRFTISRDNAKNTVYLQMNSLKPEDTAVYYCAKRLRVLYYYWGQGTQVTVSS | high polyreactivity |
| QVQLVESGGGLVQAGGSLRLSCAASGSTFSQYAMGWYRQAPGKERELVAAITGSTGSTYYADSVKGRFTISRDNAKNTVYLQMNSLKPEDTAVYYCAAVSSNARHVSRRRGYYWGQGTQVTVSS | high polyreactivity |
| QVQLVESGGGLVQAGGSLRLSCAASGSTFSQYAMGWYRQAPGKERELVAAITRGGRTYYADSVKGRFTISRDNAKNTVYLQMNSLKPEDTAVYYCNAVLGLLYGYDYWGQGTQVTVSS | high polyreactivity |
| QVQLVESGGGLVQAGGSLRLSCAASGSTFSRDAMRWYRQPPGKERELVAAISSVGDTYYADSVKGRFTISRDNAKNTVYLQMNSLKPEDTAVYYCGATFVVKGTRFGYWGQGTQVTVSS | high polyreactivity |
| QVQLVESGGGLVQAGGSLRLSCAASGSTFSRNAMGWSRQAPGKERELVAAISRRGGTTNYADSVKGRFTISRDNAKNTVYLQMNSLKPEDTAVYYCNAQPGDYWGQGTQVTVSS | high polyreactivity |
| QVQLVESGGGLVQAGGSLRLSCAASGSTFSRNAMGWYRQAPGKERELVAGITTSGGRTYYADSVKGRFTISRDNAKNTVYLQMNSLKPEDTAVYYCANSGYRYFYGRPRFDYWGQGTQVTVSS | high polyreactivity |
| QVQLVESGGGLVQAGGSLRLSCAASGSTFSRNTMGWYRQAPGKERELVAAISKSGGRTYYADSVKGRFTISRDNAKNTVYLQMNSLKPEDTAVYYCNAAVYAYASDYWGQGTQVTVSS | high polyreactivity |
| QVQLVESGGGLVQAGGSLRLSCAASGSTFSRYAMGLYRQATGKDRELVAAISWRGGRTYYADSVKGRFTISRDNAKNTVYLQMNSLKPEDTAVDYCAGLGDDATSYGYWGHGTQVTVSS | high polyreactivity |
| QVQLVESGGGLVQAGGSLRLSCAASGSTFSRYAMGWYRQAPGKERELVAAISSSGGSTYYADSVKGRFTISRDNAKNTVYLQMNSLKPEDTAVYYCAARIWRTRRYDYWGQGTQVTVSS | high polyreactivity |
| QVQLVESGGGLVQAGGSLRLSCAASGSTFSRYAMGWYRQAPGKERELVAAISWRGGRTYYADSVKGRFTISRDNAKNTVYLQMNSLKPADTAVYYCNAVSYFTSQRYDYWGQGTQVTVSS | high polyreactivity |

| Sequence | polyreactivity (PSR sort gate) |
| --- | --- |
| QVQLVESGGGLVQAGGSLRLSCAASGSTFSRYTMGWYRQAPGKERELVAAISYRGGSTYYADSVKGRFTISRDNAKNTVYLQMNSLKPEDTAVYYCAAEYRVEGSDYDYWGQGSQVTVSS | low polyreactivity |
| QVQLVESGGGLVQAGGSLRLSCAASGSTFSRYTMGWYRQAPGKERELVAAITWSGGRTYYADSVKGRFTISRDNAKNTVYLQMNSLKPEDTAVSYCNVDSSRYSGYDYWGQGTQVTVSS | high polyreactivity |
| QVQLVESGGGLVQAGGSLRLSCAASGSTFSSNAMGWYRQAPGKERELVAAIDRGGSTYYADSVKGRFTISRDNAKNTVYLQMNSLKPEDTAVYYCAKGFDFRRRYDYWGQGTQVTVSS | low polyreactivity |
| QVQLVESGGGLVQAGGSLRLSCAASGSTFSSYAMAWYRQAPGKERELVAAISSVGVDTYYADSVKGRFTISRDNAKNTVYLQMISLKPEDTAVYYCAAGRYGWWRHYFVFKYDYWGQGTQVTVSS | low polyreactivity |
| QVQLVESGGGLVQAGGSLRLSCAASGSTFSSYAMGWYIQAPGKERELVAAITSSGGTTYYSDSVKGRFTISRDNAKNTVYLQMNSLKPEDTAVYYCAAADVIFWLYYYWGQGTQVTVSS | low polyreactivity |
| QVQLVESGGGLVQAGGSLRLSCAASGSTFSSYAMGWYRPAPGKERELVAAITSSGGSTYYADSVKGRFTISRDNAKNTVYLQMNSLKPEDTAVYYCAAADVIFWLYYYWGQGTQVTVSS | low polyreactivity |
| QVQLVESGGGLVQAGGSLRLSCAASGSTFSSYAMGWYRQAPGKERELVAAINWSGTRTYYADSVKGRFTISRDNAKNTVYLQMNSLKPEDTAVYYCAAVLSLSSRQGVITKGDYWGQGTQVTVSS | low polyreactivity |
| QVQLVESGGGLVQAGGSLRLSCAASGSTFSSYAMGWYRQAPGKERELVAAISSSGVRTYYADSVKGRFTISRDNAKNSVYLQMNSLKPEDTAVYYCKLTLLTVNRTGMTTWGQGTQVTVSS | high polyreactivity |
| QVQLVESGGGLVQAGGSLRLSCAASGSTFSSYAMGWYRQAPGKERELVAGIAWGGSSTDYADSVKWRFTISRDTAKNTVYLQMNSLKPEDTAVYYCARRYRRGWSTLDYWGQGTQVTVSS | low polyreactivity |
| QVQLVESGGGLVQAGGSLRLSCAASGSTFSTNAMGWYRQAPAKERELVAAISYSGGSTYYADSVKGRFTISRDNAKNTVYLQMLSLKPEDTAVYYCAADGYYYNSGGRYYEFYYWGQGTQVTVSS | low polyreactivity |
| QVQLVESGGGLVQAGGSLRLSCAASGSTFSTNAMGWYRQAPGKESELVASITRSGGSTYYADSVKGRFTISRDNAKNTVYLQMNSLKPEDTAVYYCNADGYYDYDYGYWGQGTQVTVSS | low polyreactivity |
| QVQLVESGGGLVQAGGSLRLSCAASGSTFSTNAMGWYSPAPGKERELVAASTVSGGRTYYADSVKGRFTISRDNAKNTVYLQMNSLKPEDTAVYYCATDTSRLSIFGYVSFYYWGQGTQVNVSS | low polyreactivity |
| QVQLVESGGGLVQAGGSLRLSCAASGSTFSVNAMGWYRQAPGKEREFVAAIRWPGGSTYYADSVKGRFTFSRDKAKNTVYLQMNSLKPEDTAVYYCAARIKYRYDWGQGTQVTVSS | low polyreactivity |
| QVQLVESGGGLVQAGGSLRLSCAASGSTFSVYAMGWYRQAPGKERELVAAISSSGANTYYADSVKGRFTISRDNAKNTVYLQMNSLKPEDTAVYYCAAYVSGGYEYDYWGQGTQVTVSS | low polyreactivity |
| QVQLVESGGGLVQAGGSLRLSCAASGSTFSVYAMGWYRQAPGKERELVATISWGGGITYYADSVKGRFTISRDNAKNTVYLQMNSLKPEDTAVYYCAAYARYPRYYYWGQGTQVTVSS | high polyreactivity |
| QVQLVESGGGLVQAGGSLRLSCAASGSTFSWNTMGWYRQAPGKERELVAAINSGGSTYYADSVKGRFTISRDNAKNTVYLQMNSLKPEDTAVYYCAARTNYYGRFDYWGQGTQVTVSS | low polyreactivity |
| QVQLVESGGGLVQAGGSLRLSCAASGSTFSWYAMGWYRQAPGKERELVAAISYSGGTYYADSVKGRFTISRDNEKNTVYLQMNSLKPEYNAVYYCAALRTRYGYDYWGQGTQVTLSS | high polyreactivity |
| QVQLVESGGGLVQAGGSLRLSCAASGSTFSYAMGWYRQAPGKERELVAAITTSGGSTYYADSVKGRFTISRDNAKNTVYLQMNSLKPVDTAVDYCARERYYRRFYRPRRYDYWGQGTQVTVSS | low polyreactivity |
| QVQLVESGGGLVQAGGSLRLSCAASGSTFSYNAMGWYRQAPGKERELVAAISFISGSTYYADSVKGRFTISRDNAKNTVYLQMNSLKPEDTAVYYCNAGRTRRRDYYWQYDYWGQGTQVTVSS | high polyreactivity |
| QVQLVESGGGLVQAGGSLRLSCAASGSTFSYYAMGWYRQAPGKERELVAAIRKSGGSTYYADSVKGRFTISRDNAKNTVYLQMNSLKPEDTAVYSCAAVFSYYGWYSRYDYWGQGTQVTVSS | low polyreactivity |
| QVQLVESGGGLVQAGGSLRLSCAASGSTFSYYAMGWYRQAPGKERELVAAITSSGGRTYYADSVKGRFTISRDNAKYTVYLQMNSLKPEDTAVYYCATRKPRYQRAFDSWGQGTQVTVSA | high polyreactivity |
